Experimental findings from the supplement of paper PMC9112550, “Optimization of the antimicrobial peptide Bac7 by deep mutational scanning” (BMC Biology, 2022) are described below.
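Also: peptides expressed intracellularly from a pBAD plasmid library in pooled LB shake-flask culture, induced with 0.3% L-arabinose, DNA abundance read by NGS, three biological replicates, DESeq2 with apeglm shrinkage.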

The series relates to Escherichia coli TOP10. The series can be described thus: shrunken log2 fold change of peptide-encoding DNA abundance (4.5 h post-induction vs induction); higher = less antimicrobial activity (less host growth inhibition). Particulars: time post-induction: 4.5 h; library: site-saturation at positions 5, 18, 19, 20.
For the sequence RRIRPRPPRLPRPRPRPMHSPRP, the “shrunken log2 fold change” value came out at 0.355. RRIRQRPPRLPRPRPRPLIGPRP: the “shrunken log2 fold change” value is -0.285.

In the case of RRIRRRPPRLPRPRPRPCPVPRP, the “shrunken log2 fold change” value is -0.256. With RRIRYRPPRLPRPRPRPPDLPRP, the “shrunken log2 fold change” value was -0.212. In the case of RRIRKRPPRLPRPRPRPNPKPRP, the “shrunken log2 fold change” value is 0.143. As for RRIRHRPPRLPRPRPRPHYMPRP, the “shrunken log2 fold change” value was -0.854. RRIRLRPPRLPRPRPRPISLPRP: the “shrunken log2 fold change” value was -0.36. As for RRIRWRPPRLPRPRPRPWGQPRP, the figure is -0.0525; as for RRIRLRPPRLPRPRPRPHNYPRP, -0.749; as for RRIRTRPPRLPRPRPRPEMRPRP, 0.825. As for RRIRHRPPRLPRPRPRPFCIPRP, the “shrunken log2 fold change” value is -0.538. For RRIRGRPPRLPRPRPRPDEVPRP, the “shrunken log2 fold change” value is 0.885. For the sequence RRIRTRPPRLPRPRPRPPAGPRP, the “shrunken log2 fold change” value came to 0.279.

With RRIRKRPPRLPRPRPRPSWWPRP, the “shrunken log2 fold change” value was 0.138. In the case of RRIRTRPPRLPRPRPRPNSNPRP, the “shrunken log2 fold change” value was -0.716. As for RRIRQRPPRLPRPRPRPWWAPRP, the “shrunken log2 fold change” value is -0.014. Turning to RRIRNRPPRLPRPRPRPPSMPRP, the “shrunken log2 fold change” value is -0.0213. RRIRVRPPRLPRPRPRPERVPRP: the “shrunken log2 fold change” value was -0.107. Take RRIRSRPPRLPRPRPRPLTTPRP: the “shrunken log2 fold change” value was -0.127. With RRIRPRPPRLPRPRPRPSAEPRP, the “shrunken log2 fold change” value is 0.257. The same measure for RRIRFRPPRLPRPRPRPIPTPRP: 0.0793. With RRIRPRPPRLPRPRPRPMGYPRP, the “shrunken log2 fold change” value is -0.0838.

Turning to RRIRKRPPRLPRPRPRPFMLPRP, the “shrunken log2 fold change” value is -0.0682. The same measure for RRIRERPPRLPRPRPRPWSCPRP: -0.11; for RRIRERPPRLPRPRPRPLQQPRP: 0.0643. As to RRIRSRPPRLPRPRPRPPGMPRP, the “shrunken log2 fold change” value was -0.0105. Consider RRIRSRPPRLPRPRPRPDNLPRP, for which the “shrunken log2 fold change” value is -0.0926. For the sequence RRIRQRPPRLPRPRPRPGAHPRP, the “shrunken log2 fold change” value was found to be 0.179. As to RRIRLRPPRLPRPRPRPEVSPRP, the “shrunken log2 fold change” value turned out to be 0.254. As to RRIRTRPPRLPRPRPRPFGIPRP, the “shrunken log2 fold change” value was -0.338. RRIRGRPPRLPRPRPRPLNGPRP: the “shrunken log2 fold change” value turned out to be 0.11.

As to RRIRPRPPRLPRPRPRPMPRPRP, the “shrunken log2 fold change” value amounted to 0.238. With RRIRDRPPRLPRPRPRPSWHPRP, the “shrunken log2 fold change” value was -0.0852. With RRIRHRPPRLPRPRPRPPDKPRP, the “shrunken log2 fold change” value is -0.112. For RRIRMRPPRLPRPRPRPTVVPRP, the “shrunken log2 fold change” value was determined as 0.0159. On to RRIRMRPPRLPRPRPRPMQIPRP, for which the “shrunken log2 fold change” value came out at 0.0553. As for RRIRHRPPRLPRPRPRPPANPRP, the figure is 0.478; as for RRIRQRPPRLPRPRPRPFTMPRP, -0.141. Regarding RRIRLRPPRLPRPRPRPVTPPRP, the “shrunken log2 fold change” value is -0.0834. Consider RRIRKRPPRLPRPRPRPSWTPRP, for which the “shrunken log2 fold change” value was -0.0691.

Consider RRIRARPPRLPRPRPRPPRCPRP, for which the “shrunken log2 fold change” value is 0.931. For the sequence RRIRDRPPRLPRPRPRPDNIPRP, the “shrunken log2 fold change” value is -0.112.

As for RRIRVRPPRLPRPRPRPRQGPRP, the “shrunken log2 fold change” value is 0.317.

As for RRIRDRPPRLPRPRPRPVVRPRP, the “shrunken log2 fold change” value was 0.155. Turning to RRIRDRPPRLPRPRPRPAGNPRP, the “shrunken log2 fold change” value worked out at 0.0407.

Regarding RRIRQRPPRLPRPRPRPGSTPRP, the “shrunken log2 fold change” value was -0.146.

On to RRIRLRPPRLPRPRPRPASGPRP, for which the “shrunken log2 fold change” value worked out at 0.373. Turning to RRIRERPPRLPRPRPRPKHTPRP, the “shrunken log2 fold change” value is -0.127. Regarding RRIRGRPPRLPRPRPRPNVWPRP, the “shrunken log2 fold change” value is 0.728. Turning to RRIRDRPPRLPRPRPRPIIGPRP, the “shrunken log2 fold change” value is -0.193.
